Test in all cases: competition ELISA, peptide tracer
(ELISA stands for enzyme-linked immunosorbent assay.)

Experiment [1] addresses T1, cynomolgus monkey IL-2Rβ subunit (cynomolgus monkey).
T1 construct: Bought protein; also called cyno-IL-2Rβ subunit
The method, then:
(§1) Binding of Fc fusions to IL-2Rβ and IL-2Rγc were measured using a competition binding ELISA with biotinylated peptide/NeutrAvidin-HRP tracer. ELISA plate was prepared as described in Example 27.
(§2) The plate was washed 4 times with PT (1×PBS, 0.05% Tween® 20) buffer. Fifty (50) μL of IL-2R ligands serially diluted in PBT was added to appropriate wells then incubated at 4° C. for 1 hr.
(§3) At the appropriate time, the precomplexed bn-peptide/NA-HRP tracer was diluted to 2-fold its predetermined binding EC80 (typically 30 to 10 nM) without washing. fifty (50) μL of bn-peptide/NA-HRP tracer was added to each well and incubated at 4° C. for 45 mins.

Experiment [2] concerns the target T2, human IL-2Rβ (CD122 protein, Fc Tag) (27-239) (human, UniProt P14784 27-239).
T2 construct: range 27-239; Bought protein; also called hu-IL-2Rβ subunit; IL-2Rβ subunit; not shown: Fc tag of the bought protein
T2 sequence (looked up): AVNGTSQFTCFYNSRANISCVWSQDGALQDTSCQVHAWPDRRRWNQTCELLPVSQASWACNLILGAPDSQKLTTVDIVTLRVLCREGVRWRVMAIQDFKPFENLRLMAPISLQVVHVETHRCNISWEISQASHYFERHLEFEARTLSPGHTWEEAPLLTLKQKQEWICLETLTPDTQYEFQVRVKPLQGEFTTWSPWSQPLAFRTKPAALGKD
The protocol: as §1, §2, §3

The target in experiment [3] is T3, human IL-2Rγc (CD132 protein, Fc Tag) (23-254) (human, UniProt P31785 23-254).
T3 construct: range 23-254; Bought protein; also called hu-IL-2Rγc subunit; IL-2Rγc subunit; not shown: Fc tag of the bought protein
T3 sequence (looked up): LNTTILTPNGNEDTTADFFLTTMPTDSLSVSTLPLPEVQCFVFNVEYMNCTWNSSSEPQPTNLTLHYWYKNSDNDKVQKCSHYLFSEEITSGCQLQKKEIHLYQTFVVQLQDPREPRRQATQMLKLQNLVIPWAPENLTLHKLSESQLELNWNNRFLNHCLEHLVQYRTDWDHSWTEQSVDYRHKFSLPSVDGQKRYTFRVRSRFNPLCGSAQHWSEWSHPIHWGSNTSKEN
The protocol: as §1, §2, §3

For experiment [4], the target named is T4, cynomolgus monkey Rγc subunit (cynomolgus monkey).
T4 construct: also called cyno-IL-2Rγc subunit
The protocol:
as §1, §2, §3

T1 sequence (Q38J85 whole entry): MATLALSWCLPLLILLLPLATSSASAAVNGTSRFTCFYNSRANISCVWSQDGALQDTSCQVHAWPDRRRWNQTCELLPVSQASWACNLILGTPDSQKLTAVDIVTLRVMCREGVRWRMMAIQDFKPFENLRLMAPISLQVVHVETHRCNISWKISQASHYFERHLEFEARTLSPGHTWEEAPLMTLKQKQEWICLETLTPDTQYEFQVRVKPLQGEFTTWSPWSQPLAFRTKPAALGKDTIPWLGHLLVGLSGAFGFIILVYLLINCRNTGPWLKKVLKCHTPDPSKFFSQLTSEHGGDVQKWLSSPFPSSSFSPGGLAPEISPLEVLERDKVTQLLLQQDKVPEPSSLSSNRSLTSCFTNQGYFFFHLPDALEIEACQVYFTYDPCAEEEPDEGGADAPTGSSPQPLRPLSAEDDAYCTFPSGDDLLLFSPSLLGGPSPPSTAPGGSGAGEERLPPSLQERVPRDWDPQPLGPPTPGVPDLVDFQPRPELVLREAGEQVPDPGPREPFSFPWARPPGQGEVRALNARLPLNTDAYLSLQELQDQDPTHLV

Take LLVDCFKVKVGELCDLFFGGG [SEQ ID NO 3125]: the IC50 in experiment [1] and in experiment [2] was below 100 µM in each case.

As for GGELLVDCFKVKVGELCDLFF [SEQ ID NO 3107], the IC50 in experiment [1] and in experiment [2] was below 100 µM throughout.

B1: SEQ ID NO 4176 (peptide)
peptide: GGRYVHDCFIAQVGDLCDLFLHPAPAPAPAPAPAPAPAGVVCQDWEGVELCWQGG
Consider B1, for which the IC50 in experiment [3], in experiment [1], in experiment [2] and in experiment [4] was below 100 µM each time.

B2: SEQ ID NO 4182 (peptide)
peptide: GGRYVHDCFIAQVGDLCALFLHPAPAPAPAPAPAPAPAGVVCQDWEGVELCWQGG
For B2, the IC50 in experiment [3], in experiment [1], in experiment [2] and in experiment [4] was below 100 µM each time.

B3: SEQ ID NO 4183 (peptide)
peptide: GGRYVHDCFIAQAGDLCDLFLHPAPAPAPAPAPAPAPAGVVCQDWEGVELCWQGG
In the case of B3, the IC50 in experiment [3], in experiment [1], in experiment [2] and in experiment [4] was below 100 µM each time.

B4: SEQ ID NO 4175 (peptide)
peptide: GGRYVHDCFIAQVGDLCDLFLHGGGGSGGGGSGGGGSGGGGSGGVVCQDWEGVELCWQGG
Regarding B4, the IC50 in experiment [3], in experiment [1], in experiment [2] and in experiment [4] was below 100 µM throughout.

GGELLVDCFRVRVGELCDLFFGGG [SEQ ID NO 3128]: the 50% inhibitory concentration (IC50) in experiment [1] and in experiment [2] was below 100 µM each time.

With ELLVDCFKVKVGELCDLFFGGG [SEQ ID NO 3124], the IC50 in experiment [1] and in experiment [2] was below 100 µM throughout.

Turning to GGELLVDCFKVKVGELCDLF [SEQ ID NO 3122], the IC50 in experiment [1] and in experiment [2] was below 100 µM throughout.

On to LVDCFKVKVGELCDLFFGGG [SEQ ID NO 3126], for which the IC50 in experiment [1] and in experiment [2] was below 100 µM throughout.

Take WYPCWIARVGELCDLEEGPVNRGGGGGSGGVVCQDWEGVELCWQGG [SEQ ID NO 4172]: the IC50 in experiment [3], in experiment [1], in experiment [2] and in experiment [4] was below 100 µM throughout.

In the case of GGRYVHDCFIAQVGDLCDLFLHGG [SEQ ID NO 3147], the IC50 in experiment [1] and in experiment [2] was below 100 µM in each case.

For GGRYVHDCFIGQVGDLCALFLHGG [SEQ ID NO 3204], the IC50 in experiment [1] and in experiment [2] was below 100 µM throughout.

Consider GGRYVADCFIAQVGDLCDLFLHGG [SEQ ID NO 3180], for which the IC50 in experiment [1] and in experiment [2] was below 100 µM each time.

GGAYVHDCFIAQVGDLCDLFLHGG [SEQ ID NO 3177]: the IC50 in experiment [1] and in experiment [2] was below 100 µM each time.

On to GGRYVHDCFAAQVGDLCDLFLHGG [SEQ ID NO 3170], for which the IC50 in experiment [1] and in experiment [2] was below 100 µM throughout.

Take GGRYVHDCFIAQAGDLCDLFLHGG [SEQ ID NO 3173]: the IC50 in experiment [1] and in experiment [2] was below 100 µM each time.

For GGRYVHDCFIAQVGDLCALFLHGG [SEQ ID NO 3186], the IC50 in experiment [1] and in experiment [2] was below 100 µM in each case.

As to GGRYVHDCFIAAVGDLCDLFLHGG [SEQ ID NO 3172], the IC50 in experiment [1] and in experiment [2] was below 100 µM each time.

Take GGRYVHDCFIAQVGDLCDAFLHGG [SEQ ID NO 3185]: the IC50 in experiment [1] and in experiment [2] was below 100 µM throughout.

As to GGRYVHDCFIAQVGDACDLFLHGG [SEQ ID NO 3176], the IC50 in experiment [1] and in experiment [2] was below 100 µM throughout.

Turning to GGAYVHDCFIGQVGDLCDLFLHGG [SEQ ID NO 3202], the IC50 in experiment [1] and in experiment [2] was below 100 µM in each case.

With GGRYVHDCFIAQVGDLCDLFAHGG [SEQ ID NO 3183], the IC50 in experiment [1] and in experiment [2] was below 100 µM in each case.

As for GGRAVHDCFIAQVGDLCDLFLHGG [SEQ ID NO 3178], the IC50 in experiment [1] and in experiment [2] was below 100 µM throughout.

GGRYVHDCFIGQVGDLCDLFLHGG [SEQ ID NO 3171]: the IC50 in experiment [1] and in experiment [2] was below 100 µM in each case.

As for GGRYVHDCFIGAVGDLCDLFLHGG [SEQ ID NO 3200], the IC50 in experiment [1] and in experiment [2] was below 100 µM in each case.

As for GGRYVHDCFIAQVADLCDLFLHGG [SEQ ID NO 3174], the IC50 in experiment [1] and in experiment [2] was below 100 µM each time.

GGRYAHDCFIAQVGDLCDLFLHGG [SEQ ID NO 3179]: the IC50 in experiment [1] and in experiment [2] was below 100 µM in each case.

For GGRYVHDCFIAQVGDLCDLFLAGG [SEQ ID NO 3182], the IC50 in experiment [1] and in experiment [2] was below 100 µM in each case.

For the molecule VDCFKVKVGELCDLFFGGG [SEQ ID NO 3127], the IC50 in experiment [1] and in experiment [2] was below 100 µM throughout.

B5: SEQ ID NO 4173 (peptide)
peptide: GGGELLVDCFKVKVGELCDLFFGGGGGSGGGGSGGVVCQDWEGVELCWQGG
As to B5, the IC50 in experiment [3], in experiment [1], in experiment [2] and in experiment [4] was below 100 µM throughout.

B6: SEQ ID NO 4174 (peptide)
peptide: GGGELLVDCFKVKVGELCDLFFGGGGGSGGGGSGGGGSGGVVCQDWEGVELCWQGG
Take B6: the IC50 in experiment [3], in experiment [1], in experiment [2] and in experiment [4] was below 100 µM each time.

The term IC50 denotes the concentration needed to halve the response being measured.

The values are drawn from patent US20220119492A1 (MEDIKINE, published 2022).
